The record followed here is the nanobody polyreactivity screen of Harvey et al. (2022).

The nature of this data set: yeast display, Sf9 membrane polyspecificity reagent, FACS + sequencing; frameworks hold sequencing errors. In short, it runs like this: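 Galactose induction of a Saccharomyces cerevisiae BJ5465 synthetic nanobody display library ran 36–48 hours. The cells were then stained for 1 hour at 4 °C with 10% biotinylated, detergent-solubilized Sf9 membrane reagent, pulled down on streptavidin microbeads and FACS-sorted into low and high (top ~1%) gates on expression and reagent-binding fluorescence. Labels for polyreactivity follow the gate of origin.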
Regarding “QVQHVESGGGLEQARGSLRLTCAASGRTFRYYAMAWYRQAPGKERELVASISDGGSTNYADSVNGRFTITRDNAKNTVYLQMNRLKPEDTAVYYCNSKCYVWYLYDEFGYWGQGTQVTVSS”, the “polyreactivity (PSR sort gate)” value is recorded as “low polyreactivity”.

For “QVQHVESGGGLGQAGGSLRLSCAASGRIFDEYALGSYRQAPGKERELVAAISLIGASTYYADSVKGRFTISRDTAKNTVYLQMNSQHPEDTAVYYCAAEYAFVVPGYYREVYYWGEGTQVTVSS”, the “polyreactivity (PSR sort gate)” value was “low polyreactivity”.

Consider “QVQHVESGGGLGQARRSLRLSCAASGTIINANAMGWDRQAPGKERELVASISGGAGSTYYADSVKGRFTISRDNAKNTVYLQMNSLKPEDTAVYYCAADRPYRYDYWGQGTQVTVSS”, for which the “polyreactivity (PSR sort gate)” value was “low polyreactivity”.

On to “QVQHVESGGGLLQAGGSLRLSCAASGGTFTPNVMGWYRQAPGKVRELVAAIDDSGSRTYYADSVKGRFTISRDYAKNTVYLQMNSLKPEDTAVYFCAVFWYGTYPMYYWGQGTQVTVSS”, for which the “polyreactivity (PSR sort gate)” value is “low polyreactivity”.

For the sequence “QVQHVESGGGLLQAGGSLRLSSAATGSTNAMGWYRQAHGKERELVAAISRRGGSTYYADSVKGRFTISRDNAKKTVYLQMFSLKPEDTAVYYCAAPYSTFSYVYWGQGTQLTVSS”, the “polyreactivity (PSR sort gate)” value is given as “high polyreactivity”.

With “QVQHVESGGGLVQAGASLRLSCAASGLTFYRYALGWYRQARGNERELVAAITSGTRTYYADSVKGRFTISRDNAKNTVYLQMYSLKPEDTAVYYCAASWQTRTYQSRYYYWGQGTQVTVSS”, the “polyreactivity (PSR sort gate)” value is listed as “high polyreactivity”.

With “QVQHVESGGGLVQAGGILRLSSAASGSTFVKNGMGWSRQAPGKERELVAAISGRRGSTYYADSVKGRFTISRDNAKNTVYLQMNSLKPEDTAVYYCNKAYSVAYTYNYWGQGTQVTVSS”, the “polyreactivity (PSR sort gate)” value is recorded as “high polyreactivity”.

With “QVQHVESGGGLVQAGGRLRLSCAASGRIFGGYTMGWYRQAPGKERELVAAINSGGSTYYADSVKGRFTISRDNAKNTVYLQMNCLKPEDTAVYYCAKVRSYFGKYGYGYWGQGTQVTVSS”, the “polyreactivity (PSR sort gate)” value was “high polyreactivity”.

Regarding “QVQHVESGGGLVQAGGRLRLSCAASGRTFPRYAIGLYRQAPGKERELVAAISVLAGITYYADSVKGRFTISRDNAKNTVYLQMNSLKPEDTAVYYCAKDHWTTSYDEGDYWGQGPQVTVSS”, the “polyreactivity (PSR sort gate)” value is “low polyreactivity”.

For “QVQHVESGGGLVQAGGRLRLSCAASGSIFVAYAMGWSRTAPGKERELVAAITYSAGSTYYADSVKGRITISRDNAKNTVYLQMNSLKPEDTAVYYCAADAMVFSFIGYEYWGQGTQVTVSS”, the “polyreactivity (PSR sort gate)” value is reported as “low polyreactivity”.

“QVQHVESGGGLVQAGGSLLLSCAASGSITVSYMGWYRQAPGKERELVAAISFSGASTYYADSVKGRFTISRDDAKNTVYLQMNSLKPEDTAVYYCAAEYVIYYWFEWLDLDYWGQGTQVTVSS”: the “polyreactivity (PSR sort gate)” value is listed as “high polyreactivity”.

On to “QVQHVESGGGLVQAGGSLRFSCAASGFIFIRNGMGWYRQAPGKERELVAAISARGGSTYYADSVKGRFTISRDNAKNTVYLQMNSLKPEDTALYYCAAYRPRKYDYWGQGTQVTVSS”, for which the “polyreactivity (PSR sort gate)” value was “high polyreactivity”.

On to “QVQHVESGGGLVQAGGSLRLICAASGFSFILYAMGWYRQARGKERELVAAISSSGGRRYYADSVKGRFTISRDNANNTVYIQMNSLKPEDTAVYYCNAVRTVNDYHYDYWGQGTQVTVSS”, for which the “polyreactivity (PSR sort gate)” value is listed as “high polyreactivity”.

For “QVQHVESGGGLVQAGGSLRLICAASGSTFRGYAMGWYRPAPGKERELVAAITSSGGSTYYADSVKGRFTISRDNAKNTVYLQMNSLKPEDTAVYSCAAASRRFGLYGYWGQGTQVTVSS”, the “polyreactivity (PSR sort gate)” value is “high polyreactivity”.

“QVQHVESGGGLVQAGGSLRLRCAASGRTFGQNTMGWSRQAPGKERELVAAISWSGDSTYYADSVKGRFTISRDNAKNTVYLQMNSLKTEDSAVYYCAADPYNYYVSGYDYWGQGTQVTVSS”: the “polyreactivity (PSR sort gate)” value is recorded as “low polyreactivity”.

In the case of “QVQHVESGGGLVQAGGSLRLSCAASGFIFDRYAMGWYRQAPGKERELVAAISSGGSTYYADSVKGRFTISRDNAKNTVYLQMNSLKPEDTAVYYCAAESWLNFIYEYDYWGQGTQVTVSS”, the “polyreactivity (PSR sort gate)” value was “low polyreactivity”.
